Results reported in US20200407442A1 (WUXI BIOLOGICS IRELAND, published 2020).
Each block holds one binder with its values, some of them ahead of it.

Columns and labels:
Variant 5: xPro1.FL-x5 = molecular target: T1, Variant 5: xPro1.FL-x5 (human; mouse); assay: FACS, 1 ug/mL antibody, transfected 293F cells
T1 construct: Chimeric full-length LAG-3 on transfected 293F cells
T1 chain: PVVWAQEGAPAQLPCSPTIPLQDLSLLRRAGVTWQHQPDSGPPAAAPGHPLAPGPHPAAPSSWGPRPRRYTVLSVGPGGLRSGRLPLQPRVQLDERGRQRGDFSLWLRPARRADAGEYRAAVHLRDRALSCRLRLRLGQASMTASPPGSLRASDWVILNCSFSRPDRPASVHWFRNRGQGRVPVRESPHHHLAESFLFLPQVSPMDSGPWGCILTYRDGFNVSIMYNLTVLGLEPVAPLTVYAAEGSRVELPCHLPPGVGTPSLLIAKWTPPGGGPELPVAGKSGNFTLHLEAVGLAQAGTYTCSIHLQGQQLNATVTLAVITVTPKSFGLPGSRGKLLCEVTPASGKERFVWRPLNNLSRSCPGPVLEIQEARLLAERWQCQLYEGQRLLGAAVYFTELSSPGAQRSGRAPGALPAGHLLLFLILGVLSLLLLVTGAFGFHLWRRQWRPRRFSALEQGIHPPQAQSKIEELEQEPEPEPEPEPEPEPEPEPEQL
Description: (§1) The 10 variants were cloned into pcDNA3 vector and used for 293F cell transfection. Briefly, 293F cells were diluted to a density of 1×10⁶ cells/mL with FreeStyle 293F medium and aliquots of 3 mL/well were added to 24-well plate. Transfections were performed using 293fectin reagent (Life Technologies). For each transfection, 3 μg of DNA were diluted in 150 μOpti-MEM I-reduced serum medium (Life Technologies), and then combined with 6μL 293fectin reagent pre-diluted in 150 μL Opti-MEM I reduced serum medium. The DNA/[…] mixture was allowed to stand at 25° C. for 20 min before being added to the culture. The transfected cells were analyzed by flow cytometry at 48 h post-transfection.
(§2) Binding of antibodies to chimeric LAG-3 variants or full length human/mouse LAG-3 was analyzed by flow cytometry. Briefly, 1 μg/mL antibodies were incubated with chimeric LAG-3-expressing transfected 293F cells for 1 hour at 4° C., and then incubated with 3 μg/mL goat anti-human IgG Fc R-PE (Jackson) for 40 min at 4° C. Cells were analyzed with flow cytometer.

Variant 9: xPro1.FL-x9 = molecular target: T2, Variant 9: xPro1.FL-x9 (human; mouse); assay: FACS, 1 ug/mL antibody, transfected 293F cells
T2 construct: Chimeric full-length LAG-3 on transfected 293F cells
T2 chain: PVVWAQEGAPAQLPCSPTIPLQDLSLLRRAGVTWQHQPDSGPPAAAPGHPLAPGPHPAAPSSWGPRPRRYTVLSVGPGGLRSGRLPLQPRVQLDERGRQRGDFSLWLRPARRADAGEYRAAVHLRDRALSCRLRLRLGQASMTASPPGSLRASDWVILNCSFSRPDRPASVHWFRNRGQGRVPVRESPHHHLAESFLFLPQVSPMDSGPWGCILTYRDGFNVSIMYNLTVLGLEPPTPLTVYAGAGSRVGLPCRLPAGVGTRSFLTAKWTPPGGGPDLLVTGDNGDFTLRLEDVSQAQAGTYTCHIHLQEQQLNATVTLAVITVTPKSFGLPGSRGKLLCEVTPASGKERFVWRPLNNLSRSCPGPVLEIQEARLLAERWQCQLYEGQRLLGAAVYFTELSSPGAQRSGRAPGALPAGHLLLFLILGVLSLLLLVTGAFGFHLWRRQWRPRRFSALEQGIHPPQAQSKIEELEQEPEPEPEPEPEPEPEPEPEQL
Description: as §1, §2

[1] = molecular target: T3, full-length human LAG-3 on cells (human, UniProt P18627 23-525); assay: FACS on human LAG-3 transfectant cells after incubation of the antibody in human serum at 37 C, PE-labeled goat anti-human IgG, MFI
T3 construct: Expressed on Flp-In-293, CHO or 293F transfectants; also called hPro1.FL; cell surface human LAG-3
T3 sequence: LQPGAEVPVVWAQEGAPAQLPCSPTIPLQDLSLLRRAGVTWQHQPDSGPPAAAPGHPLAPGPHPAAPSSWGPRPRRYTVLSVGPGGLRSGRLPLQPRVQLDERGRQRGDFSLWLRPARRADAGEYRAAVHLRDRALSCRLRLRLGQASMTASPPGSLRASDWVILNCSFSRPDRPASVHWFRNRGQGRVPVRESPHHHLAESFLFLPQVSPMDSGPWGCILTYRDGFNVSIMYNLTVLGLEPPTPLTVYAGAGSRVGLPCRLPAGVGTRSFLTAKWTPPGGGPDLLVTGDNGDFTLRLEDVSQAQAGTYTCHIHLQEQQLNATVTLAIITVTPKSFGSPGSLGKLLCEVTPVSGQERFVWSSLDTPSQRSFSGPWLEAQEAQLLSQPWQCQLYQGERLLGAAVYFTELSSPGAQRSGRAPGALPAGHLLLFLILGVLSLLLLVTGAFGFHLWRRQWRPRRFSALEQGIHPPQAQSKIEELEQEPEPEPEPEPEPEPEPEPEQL
Description: The lead Abs were incubated in freshly isolated human serum (serum content>95%) at 37° C. On indicated time points, an aliquot of serum treated sample was removed from the incubator and snap frozen in liquid N₂, and then stored at −80° C. until ready for test. The samples were quickly thawed immediately prior to the stability test. Human LAG-3 transfectant cells were incubated with various concentrations of lead antibodies at 4° C. for 1 hour. PE-labeled goat anti-human IgG was used to detect the binding of lead antibodies onto the cells. MFI of the cells was measured by a flow cytometer (BD FACSCanto II) and analyzed by FlowJo.

MFI (Variant 5: xPro1.FL-x5): 6260
PE+ % (Variant 5: xPro1.FL-x5): 97.1%
MFI (Variant 9: xPro1.FL-x9): 7030
PE+ % (Variant 9: xPro1.FL-x9): 97.3%
EC50 (read off the curve) [1]: ~3 nM
B1: 1.53.3-uAb-IgG4k (antibody, V domains shown)
VH: QVQLQQWGAGLLKPSETLSLTCGVYGGSFSGYYWSWIRQPPGMGLEWIGEINHRGNTNYNPSLKSRVTISEDTSKNQFSLRLSSVTAADTAVYFCTRGEDYSDYDYYGDFWGQGTLVTVSS
VL: EIVLTQSPATLSLSQGERATLSCRASQSISSYLAWYQQKPGQAPRLLIYAASNRATGIPARFSGSGSGTDFTLTISSLEPEDFAIYYCQQRSNWPLTFGGGTKVEIK
notes: Fully human antibody from OMT rats; IgG4 kappa by its name

MFI (Variant 5: xPro1.FL-x5): 7070
PE+ % (Variant 5: xPro1.FL-x5): 75.9%
MFI (Variant 9: xPro1.FL-x9): 8320
PE+ % (Variant 9: xPro1.FL-x9): 87.3%
EC50 (read off the curve) [1]: ~0.8 nM
B2: 3.40.19-uAb-IgG4L (antibody, V domains shown)
VH: QLQLQESGPGLVKPSETLSLTCTVSGDSISSTSYYWGWIRQPPGKGLEWIGSFYYSGSTYYNPSLKSRVTISVDTSKNQFSLKLNSVTAADTAVYYCARMQLWSYDVDVWGQGTTVTVSS
VL: QSALTQPASVSGSPGQSITISCTGTSSDVGGYDYVAWYQQHPGKVPKLMIYDVSERPSGVSNRFSGSKSGNTASLTISGLQAEDEADYYCSSYTSTTTLVVFGGGTKLSVL
notes: Fully human antibody from OMT rats; IgG4 lambda by its name; also called 3.40.19-uAb-hIgG4L
